Source: publication PMC6943196

Target: Tolypothrix sp. PCC 7601 Orange Carotenoid Protein 1 (OCP1) (Tolypothrix sp. PCC 7601)
Assay: crystal structure

Substance: Tolypothrix sp. PCC 7601 Orange Carotenoid Protein 1 (OCP1) (natural protein)
- stoichiometry N: 2
